Measured values taken from US20260055194A1.

Columns and labels:
[1] = target: human CI-M6PR on K562 cells (human) (UniProt P11717); assay: flow cytometry dot plot, cell surface stain, wild type K562 cells [Cont. 1]
[2] = target: human CI-M6PR on K562 cells (human) (UniProt P11717); assay: flow cytometry, intracellular stain (fixed, permeabilized), M6PR-KO K562 cells, Alexa 647
[3] = target: human CI-M6PR on K562 cells (human) (UniProt P11717); assay: flow cytometry, cell surface stain, wild type K562 cells, Alexa 647
[4] = target: human CI-M6PR on K562 cells (human) (UniProt P11717); assay: flow cytometry dot plot, intracellular stain, M6PR-KO K562 cells [Cont. 2]
[5] = target: human CI-M6PR on K562 cells (human) (UniProt P11717); assay: flow cytometry dot plot, intracellular stain, wild type K562 cells [Cont. 1]
[6] = target: human CI-M6PR on K562 cells (human) (UniProt P11717); assay: flow cytometry dot plot, cell surface stain, M6PR-KO K562 cells [Cont. 2]
[7] = target: human CI-M6PR on K562 cells (human) (UniProt P11717); assay: flow cytometry, intracellular stain (fixed, permeabilized), wild type K562 cells, Alexa 647
[8] = target: human CI-M6PR on K562 cells (human) (UniProt P11717); assay: flow cytometry, cell surface stain, M6PR-KO K562 cells, Alexa 647
[9] = target: human CI-M6PR on K562 cells (human) (UniProt P11717); assay: cell-based or functional assay

Chain of human CI-M6PR on K562 cells (human) (P11717 41-2491): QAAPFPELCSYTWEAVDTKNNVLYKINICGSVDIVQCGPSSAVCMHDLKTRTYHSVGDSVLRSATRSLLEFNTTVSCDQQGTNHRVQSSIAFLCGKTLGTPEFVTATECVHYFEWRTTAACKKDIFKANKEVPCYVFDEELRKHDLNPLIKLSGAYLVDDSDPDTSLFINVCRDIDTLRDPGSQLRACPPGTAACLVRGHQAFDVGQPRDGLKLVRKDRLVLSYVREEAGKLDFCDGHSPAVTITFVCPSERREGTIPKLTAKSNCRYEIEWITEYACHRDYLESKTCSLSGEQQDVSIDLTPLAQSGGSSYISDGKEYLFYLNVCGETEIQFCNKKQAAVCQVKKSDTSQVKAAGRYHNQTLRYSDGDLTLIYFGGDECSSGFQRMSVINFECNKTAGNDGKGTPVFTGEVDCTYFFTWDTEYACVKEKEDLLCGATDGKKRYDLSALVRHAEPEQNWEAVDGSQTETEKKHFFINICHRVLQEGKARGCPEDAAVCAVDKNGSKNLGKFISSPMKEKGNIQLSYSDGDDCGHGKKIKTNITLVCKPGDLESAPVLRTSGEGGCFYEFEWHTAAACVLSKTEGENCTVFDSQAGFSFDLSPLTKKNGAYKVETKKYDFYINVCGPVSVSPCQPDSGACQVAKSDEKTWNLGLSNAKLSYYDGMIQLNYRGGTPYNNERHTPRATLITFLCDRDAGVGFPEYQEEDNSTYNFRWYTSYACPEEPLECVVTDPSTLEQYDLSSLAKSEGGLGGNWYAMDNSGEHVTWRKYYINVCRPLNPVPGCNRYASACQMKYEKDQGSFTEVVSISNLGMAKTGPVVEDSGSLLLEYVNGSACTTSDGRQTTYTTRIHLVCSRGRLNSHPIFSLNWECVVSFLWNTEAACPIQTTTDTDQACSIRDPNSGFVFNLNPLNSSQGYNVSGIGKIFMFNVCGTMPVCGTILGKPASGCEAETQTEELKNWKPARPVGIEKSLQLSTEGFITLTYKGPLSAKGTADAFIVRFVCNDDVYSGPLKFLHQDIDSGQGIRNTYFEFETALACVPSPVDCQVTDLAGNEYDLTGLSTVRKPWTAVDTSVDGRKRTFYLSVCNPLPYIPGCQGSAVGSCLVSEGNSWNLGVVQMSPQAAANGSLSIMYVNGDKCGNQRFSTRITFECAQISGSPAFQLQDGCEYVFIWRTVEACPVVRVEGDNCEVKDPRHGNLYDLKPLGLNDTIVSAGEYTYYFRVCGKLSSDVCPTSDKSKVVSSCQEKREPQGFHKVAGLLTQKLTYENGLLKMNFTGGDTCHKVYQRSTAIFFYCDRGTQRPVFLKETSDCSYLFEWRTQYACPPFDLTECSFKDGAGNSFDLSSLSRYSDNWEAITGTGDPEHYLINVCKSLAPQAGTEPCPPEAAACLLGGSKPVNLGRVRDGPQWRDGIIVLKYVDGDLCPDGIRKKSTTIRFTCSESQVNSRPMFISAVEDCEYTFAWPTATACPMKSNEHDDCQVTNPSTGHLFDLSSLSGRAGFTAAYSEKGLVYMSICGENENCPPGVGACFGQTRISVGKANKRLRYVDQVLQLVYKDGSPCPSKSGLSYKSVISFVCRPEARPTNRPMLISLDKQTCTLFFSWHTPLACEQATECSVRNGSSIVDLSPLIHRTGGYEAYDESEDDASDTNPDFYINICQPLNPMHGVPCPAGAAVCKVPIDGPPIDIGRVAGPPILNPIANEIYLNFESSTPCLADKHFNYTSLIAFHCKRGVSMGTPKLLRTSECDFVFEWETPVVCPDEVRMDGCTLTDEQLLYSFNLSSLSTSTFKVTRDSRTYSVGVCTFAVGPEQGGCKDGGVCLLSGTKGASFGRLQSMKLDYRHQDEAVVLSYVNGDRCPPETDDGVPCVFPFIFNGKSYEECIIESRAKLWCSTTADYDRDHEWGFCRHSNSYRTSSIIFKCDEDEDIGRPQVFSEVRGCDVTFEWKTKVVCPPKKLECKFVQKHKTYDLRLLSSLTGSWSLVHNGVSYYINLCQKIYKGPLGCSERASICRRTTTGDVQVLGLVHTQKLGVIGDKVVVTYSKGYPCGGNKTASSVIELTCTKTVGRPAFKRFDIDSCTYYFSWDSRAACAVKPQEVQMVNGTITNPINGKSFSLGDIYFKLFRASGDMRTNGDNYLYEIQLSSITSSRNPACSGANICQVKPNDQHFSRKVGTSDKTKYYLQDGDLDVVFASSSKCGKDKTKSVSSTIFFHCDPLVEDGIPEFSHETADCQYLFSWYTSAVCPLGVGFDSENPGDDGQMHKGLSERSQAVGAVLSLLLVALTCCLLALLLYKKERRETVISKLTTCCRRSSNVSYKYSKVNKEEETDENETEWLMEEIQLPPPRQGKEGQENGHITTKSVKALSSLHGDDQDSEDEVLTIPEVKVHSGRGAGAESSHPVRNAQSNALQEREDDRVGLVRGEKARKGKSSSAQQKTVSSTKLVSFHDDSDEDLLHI
Chain of KLH-IGF2 (P01344 25-91): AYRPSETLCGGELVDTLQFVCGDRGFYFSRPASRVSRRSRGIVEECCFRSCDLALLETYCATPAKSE

| Substance | Q1 (events above the Alexa 647 gate, below the FITC gate) [1] | Median : FL18-A on M6PR-KO K562 cells (target knocked out, control) [2] | Median : FL18-A [3] | Q1 on M6PR-KO K562 cells (target knocked out, control) [4] [%] | Q1 (events above the Alexa 647 gate, below the FITC gate) [5] | Q1 on M6PR-KO K562 cells (target knocked out, control) [6] [%] | Median : FL18-A [7] | Median : FL18-A on M6PR-KO K562 cells (target knocked out, control) [8] | Uptake pHrodo (MFI) [9] [MFI] |
| --- | --- | --- | --- | --- | --- | --- | --- | --- | --- |
| IgG1-647 (antibody) | 0.39 | 35.3 | 15.7 | 0.39 | 0.48 | 1.47 | 48.4 | 14.9 |  |
| KLH-IGF2 (from UniProt P01344 25-91) |  |  |  |  |  |  |  |  | 210000 |
| MEM-238-647 (antibody) | 99.2 | 220 | 1280 | 86.8 | 99.5 | 13.1 | 3630 | 27.7 |  |
